Source: patent publication US20190144565A1 (UCB, published 2019)

Tests used:
[1] = molecular target: IgE-Fc, the Fc portion of human IgE (Cε2-Cε4 domains, V224-K547 by Dorrington & Bennich numbering, carrying a C225A mutation) (human) (UniProt P01854); test: flow cytometry, Alexa488 IgE-Fc on RBL-SX38 cells; control at 1 ug/mL
[2] = molecular target: IgE-Fc, the Fc portion of human IgE (Cε2-Cε4 domains, V224-K547 by Dorrington & Bennich numbering, carrying a C225A mutation) (human) (UniProt P01854); test: flow cytometry, Alexa488 IgE-Fc on RBL-SX38 cells; control at 10 ug/mL
[3] = molecular target: IgE-Fc, the Fc portion of human IgE (Cε2-Cε4 domains, V224-K547 by Dorrington & Bennich numbering, carrying a C225A mutation) (human) (UniProt P01854); test: flow cytometry, Alexa488 IgE-Fc on RBL-SX38 cells; control at 31 ug/mL
[4] = molecular target: IgE-Fc, the Fc portion of human IgE (Cε2-Cε4 domains, V224-K547 by Dorrington & Bennich numbering, carrying a C225A mutation) (human) (UniProt P01854); test: flow cytometry, Alexa488 IgE-Fc on RBL-SX38 cells; control at 100 ug/mL
[5] = molecular target: IgE-Fc, the Fc portion of human IgE (Cε2-Cε4 domains, V224-K547 by Dorrington & Bennich numbering, carrying a C225A mutation) (human) (UniProt P01854); test: flow cytometry, Alexa488 IgE-Fc on RBL-SX38 cells; control at 3.1 ug/mL

IgE-Fc, the Fc portion of human IgE (Cε2-Cε4 domains, V224-K547 by Dorrington & Bennich numbering, carrying a C225A mutation) (human), sequence (P01854 other isoform, or with tags, fused parts or gaps C225A C225A limits assumed): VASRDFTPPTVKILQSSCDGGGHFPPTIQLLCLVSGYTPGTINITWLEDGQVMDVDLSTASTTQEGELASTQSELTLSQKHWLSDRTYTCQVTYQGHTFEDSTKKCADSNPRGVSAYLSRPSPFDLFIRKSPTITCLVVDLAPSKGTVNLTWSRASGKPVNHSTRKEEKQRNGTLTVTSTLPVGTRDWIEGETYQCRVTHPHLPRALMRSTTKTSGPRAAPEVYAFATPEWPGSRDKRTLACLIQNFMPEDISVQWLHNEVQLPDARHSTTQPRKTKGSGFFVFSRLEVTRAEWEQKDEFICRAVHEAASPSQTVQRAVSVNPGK

**Q.** Which dissociation rate of IgE-Fc from FcεRI on cells [1] does the source give for Isotype control (antibody) here?
**A.** 1.25e-05 s⁻¹

**Q.** What about the dissociation rate of IgE-Fc from FcεRI on cells [2] of the same substance?
**A.** 1.35e-05 s⁻¹

**Q.** And the dissociation rate of IgE-Fc from FcεRI on cells [3]?
**A.** 1.28e-05 s⁻¹

**Q.** What about the dissociation rate of IgE-Fc from FcεRI on cells [4] of the same substance?
**A.** 1.3e-05 s⁻¹

**Q.** And the dissociation rate of IgE-Fc from FcεRI on cells [5]?
**A.** 1.19e-05 s⁻¹
